According to patent US20020146411A1, “Anticoagulant agents useful in treatment of thrombosis” (SmithKline Beecham Corporation, priority 1996, published 2002):
“Also recorded” adds a separate entry of the source.

Legend:
Factor IXa = biological target: T1, Factor IXa (Homo sapiens, UniProt P00740); test: Binding to Factor IXa (Table I)
T1 construct: as well as the active protease, Factor IXa

[1] = biological target: Factor IX to IXa conversion (Homo sapiens, UniProt P00740); test: Inhibition of Factor IX to IXa conversion (Table I); type: biochemical
[2] = biological target: T2, Factor IXa in Xase complex (Homo sapiens, UniProt P00740); test: Inhibition of IXa activity in Xase complex (Table I); type: biochemical
T2 construct: as well as the active protease, Factor IXa

Factor IX [3] = biological target: T3, Factor IX (Homo sapiens, UniProt P00740); test: Cofactor requirement for mAb activity (Table I)
Target sequence in this assay (P00740 29-461 limits assumed): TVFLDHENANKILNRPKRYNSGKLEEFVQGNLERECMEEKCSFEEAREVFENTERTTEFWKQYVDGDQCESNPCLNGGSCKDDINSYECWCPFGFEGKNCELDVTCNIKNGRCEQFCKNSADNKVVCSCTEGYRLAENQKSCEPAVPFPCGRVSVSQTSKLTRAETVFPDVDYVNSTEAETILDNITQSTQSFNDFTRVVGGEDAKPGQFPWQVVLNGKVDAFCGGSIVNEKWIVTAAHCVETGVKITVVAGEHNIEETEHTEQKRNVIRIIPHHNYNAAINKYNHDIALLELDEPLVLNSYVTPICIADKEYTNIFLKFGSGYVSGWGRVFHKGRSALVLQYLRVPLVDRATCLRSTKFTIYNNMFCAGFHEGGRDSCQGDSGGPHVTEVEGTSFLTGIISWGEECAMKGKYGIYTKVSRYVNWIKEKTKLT

[4] = test system: Cynomologous monkey Factor IX; test: Species cross-reactivity, monkey Factor IX; type: binding
rat Factor IX = rat Factor IX (Rattus norvegicus, UniProt P16296); test: Species cross-reactivity, rat Factor IX; type: binding
[5] = test system: rat carotid artery thrombosis; test: Rat carotid artery thrombosis model (FeCl3 injury), Example 3; type: in vivo
Excerpt: In order to evaluate the efficacy of anti-Factor IX antibodies in prevention of arterial thrombosis, the rat carotid artery thrombosis model as reported by Schumacher et al. in J. Cardio. Pharm. 22, 526-533 (1993) was adapted. This model consists of segmental injury to the carotid endothelium by oxygen radicals generated by FeCl3 solution applied on the surface of the carotid artery.
In brief, rats were anesthetized with pentobarbitone sodium, the jugular vein cannulated for intravenous injections and the left femoral artery cannulated for blood pressure and heart rate monitoring. The carotid artery was isolated by aseptic technique via a surgical incision in the neck and equipped with a magnetic flow probe for blood flow measurement. After a period of stabilization, baseline parameters were established for the following variables: carotid blood flow, arterial pressure, heart rate, activated partial thromboplastin time (aPTT) and prothrombin time (PT). Thereafter, a premeasured Whatman filter paper soaked in 50% FeCl3 solution was placed on the carotid artery for 15 minutes for complete injury of the underlying endothelial cells. After removal of the FeCl3 soaked paper, the experiment was followed to completion over 60 minutes. At the end of the experiment, the carotid thrombus was extracted from the carotid artery and weighed.
All agents were administered 15 minutes prior to the onset of carotid injury. The following treatments were examined and compared to the Factor IX mAb BC2.
1. Heparin: 15, 30, 60 or 120 U/kg bolus, followed by infusion of 0.5, 1, 2 or 4 U/kg/min, respectively over 60 minutes
2. Acetylsalicylic acid (ASA, aspirin): 5 mg/kg bolus
3. Anti-Factor IX mAb BC2: 1, 3 or 6 mg/kg bolus, followed by infusion 0.3, 1, or 2 ug/kg/min, respectively over 60 minutes
4. Heparin: 30U/kg bolus+lU/kg/min+ASA at 5 mg/kg
5. Anti-Factor IX mAb BC2: 1 mg/kg+0.3 ug/kg/min+ASA at 5 mg/kg

[6] = biological target: T4, Recombinant human Factor IX (rhFIX) (Homo sapiens, UniProt P00740, T194A); test: BIAcore kinetics of Factor IX binding to mAb on protein A surface; settings: rhFIX 49 nM, 5 mM Ca2+, biosensor
T4 construct: purchased Genetics Institute
Procedure: The kinetics of Factor IX binding to SB 249417 was assessed by BIAcore analysis with antibody bound to an immobilized protein A surface. Recombinant human Factor IX (rhFIX, Genetics Institute) at 49 nM was used and measurements performed in the presence of 5 mM Ca^2+. The interaction was characterized by rapid association, kass 2.0×10^5 M^−1 s^−1 and relatively slow off-rate, kdiss=4.1×10^−4 s^−1.

Factor IX gla domain = test: Epitope mapping of BC2 with Factor IX/Factor VII chimeric constructs; type: binding
Procedure: A library of chimeric constructs composed of sequences of Factor IX spliced into the framework of the homologous protein Factor VII was constructed and used to map the epitope for the Factor IX BC2 mAb. See Cheung et al., Thromb. Res. 80, 419-427 (1995). Binding was measured using a BiaCore 2000 surface plasmon resonance device. The BC2 antibody was coupled directly to the chip using the NHS/EDC reaction. Binding was measured by 2 min of contact time at 20 uL/min with 200 nM of each of the given constructs in 25 mM MOPS, pH 7.4, 0.15 M NaCl, 5 mM CaCl2. Dissociation was monitored for 3 min using the same buffer with no protein. No binding was detected to the wild type construct in the presence of 50 mM EDTA.

Factor IX [7] = biological target: T3, Factor IX; test: aPTT clotting time of human plasma, anti-Factor IX mAbs; type: biochemical; design: Human plasma samples were either freshly drawn and kept on ice or reconstituted; host or cells: human plasma
Procedure: The effect of increasing concentrations of anti-coagulation factor antibodies on activated partial thromboplastin time (aPTT) of human plasma was determined in a fibrometer (Becton-Dickinson Microbiology Systems, Cockeysville, Md.) using Baxter reference procedure LIB0293-J, 3/93 revision (Baxter Scientific, Edison, N.J.).
Prior to the start of the experiment, 2 to 3 mL of 0.02 M CaCl2 in a 5 mL tube were placed into the heating chamber of the fibrometer. Human plasma samples were either freshly drawn and kept on ice or reconstituted per the manufacturer's recommendation from Hemostasis Reference Plasma (American Diagnostics, Greenwich, Conn.).
Unfractionated heparin from porcine intestinal mucosa (Sigma Chemical, St. Louis, Mo.), low molecular weight heparin from porcine intestinal mucosa (Lovenox®, enoxaparin sodium, Rhone-Poulenc Rorer Pharmaceuticals, Collegeville, Pa.) or mAb anticoagulants were prepared as approximately 50 uM stock solutions and serially diluted directly into the test plasma. A blank containing plasma without anticoagulant was included as a reference.
Two fibroTube® fibrometer cups were filled with 100 ul test plasma or 100 ul test plasma with anticoagulant and 125 ul of actin activated cephaloplastin reagent (Actin reagent, from rabbit brain cephalin in ellagic acid, available from Baxter Scientific), respectively and placed in the fibrometer wells at 37° C.
After one minute, 100 ul of actin reagent was transferred to a plasma-containing cup and the contents mixed several times with a pipette. After a 3 minute incubation, 100 ul of CaCl2, prewarmed at 37° C., was added to the plasma-actin reagent mixture using a Automatic Pipette/Timer-trigger (Becton-Dickinson). The clotting times were noted and the results in FIG. 1 are presented as clotting times as a function of final concentrations of anticoagulant in the total assay volume of 300 ul. The nominal concentration of Factor IX in the assay is 30-40 nM.
Target sequence in this assay (P00740 47-461): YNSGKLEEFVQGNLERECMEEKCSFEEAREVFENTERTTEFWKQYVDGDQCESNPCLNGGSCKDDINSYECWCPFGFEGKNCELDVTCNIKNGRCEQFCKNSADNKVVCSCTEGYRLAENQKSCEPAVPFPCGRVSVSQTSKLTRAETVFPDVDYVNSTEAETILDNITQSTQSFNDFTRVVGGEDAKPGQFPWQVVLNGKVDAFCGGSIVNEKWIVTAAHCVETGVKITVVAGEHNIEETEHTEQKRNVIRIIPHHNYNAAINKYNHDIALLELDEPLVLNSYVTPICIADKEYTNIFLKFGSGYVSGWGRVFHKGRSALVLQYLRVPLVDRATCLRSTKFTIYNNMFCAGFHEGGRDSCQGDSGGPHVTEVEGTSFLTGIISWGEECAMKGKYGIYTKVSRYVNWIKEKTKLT

Factor IX [8] = biological target: T3, Factor IX; test: Binding to Factor IX (in vitro properties, Table I); design: Human plasma samples were either freshly drawn and kept on ice or reconstituted; host or cells: human plasma
Procedure: Approximately two weeks later, 1.0 mL of hybridoma medium was removed from each well and tested for anti-Factor IX antibodies using an ELISA assay as described by Jenny, R. J. et al. in Meth. Enzymol. 222, 400-416 (1993). Briefly, factor IX was immmobilized onto plastic wells of 96-well microtiter plates. Hybridoma supernatants or dilutions of purified antibody were then incubated in the wells. The wells were washed and the presence of antibody-antigen complexes detected with a goat anti-murine immunoglobulin second antibody conjugated to horseradish peroxidase and the chromogenic substrate o-dianisidine.
Target sequence in this assay (P00740 47-461): as above

[9] = test system: rat carotid artery thrombosis; test: Rat carotid artery thrombosis model, humanized mAbs, Example 8; type: in vivo; settings: 3.0 mg/kg i.v. bolus, 60 minutes after onset of injury
Procedure: In order to evaluate the efficacy of humanized anti-Factor IX antibodies in prevention of arterial thrombosis, the rat carotid artery thrombosis model as described above in Example 3 was used. Baseline parameters were established for carotid blood flow, arterial pressure, heart rate, vessel patency and activated partial thromboplastin time (aPTT). Fifteen minutes thereafter, carotid injury was effected for […]. The parameters were determined 60 minutes after onset of carotid injury. Carotid thrombus was also extracted from the carotid artery and weighed.
All agents were administered intravenously 15 minutes before the onset of carotid injury. The following treatments were examined and compared to the anti-Factor IX mAb BC2.

rhFIX = biological target: T5, rhFIX (Homo sapiens, UniProt P00740, T194A); test: Titration microcalorimetry of rhFIX binding
T5 construct: purchased Genetics Institute
Procedure: The interactions between rhFIX and SB 249417 BC2 and other humanized constructs were characterized by titration microcalorimetry, which measures binding interactions in solution from the intrinsic heat of binding. Nine injections of 106 uM FIX were made into the calorimeter containing 2 uM mAb SB 249417. Binding was detected in the first 4 injections as exothermic heats. At the last 5 injections the mAb binding sites were saturated with FIX and only background heats of mixing were observed. […] Nonlinear least squares analysis of the data yield the binding affinity.
The data in Table 3 indicate that the affinities of SB 249417, BC2 and its other humanized constructs are within error (a factor of 2) the same.

T2 sequence (P00740 47-191 limits assumed): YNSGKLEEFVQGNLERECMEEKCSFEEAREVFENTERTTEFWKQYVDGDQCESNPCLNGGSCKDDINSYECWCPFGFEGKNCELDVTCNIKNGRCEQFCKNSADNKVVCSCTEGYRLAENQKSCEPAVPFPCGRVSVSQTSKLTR
T2 sequence (P00740 227-461 limits assumed): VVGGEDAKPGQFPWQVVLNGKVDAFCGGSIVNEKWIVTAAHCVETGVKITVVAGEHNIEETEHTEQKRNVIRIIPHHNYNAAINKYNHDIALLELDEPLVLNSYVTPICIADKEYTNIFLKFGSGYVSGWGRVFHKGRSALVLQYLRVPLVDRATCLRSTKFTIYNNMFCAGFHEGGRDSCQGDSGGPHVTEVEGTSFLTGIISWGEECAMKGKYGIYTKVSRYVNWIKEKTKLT
T1 sequence (P00740 47-191 limits assumed): as the sequence (P00740 47-191 limits assumed) above
T1 sequence (P00740 227-461 limits assumed): as the sequence (P00740 227-461 limits assumed) above
Sequence of rat Factor IX (P16296 40-462): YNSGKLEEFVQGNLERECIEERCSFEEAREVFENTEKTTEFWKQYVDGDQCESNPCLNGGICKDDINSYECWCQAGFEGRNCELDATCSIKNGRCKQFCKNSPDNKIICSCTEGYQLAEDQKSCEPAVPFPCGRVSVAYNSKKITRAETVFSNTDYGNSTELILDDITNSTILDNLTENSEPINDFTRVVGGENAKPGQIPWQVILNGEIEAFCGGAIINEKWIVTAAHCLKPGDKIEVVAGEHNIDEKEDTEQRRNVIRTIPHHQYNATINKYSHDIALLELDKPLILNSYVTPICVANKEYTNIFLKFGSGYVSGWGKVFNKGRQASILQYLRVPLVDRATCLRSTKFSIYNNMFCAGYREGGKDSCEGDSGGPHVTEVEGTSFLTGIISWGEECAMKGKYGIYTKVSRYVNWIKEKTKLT
T4 sequence (P00740 47-461 T194A): as the sequence (P00740 47-461) above, with T148A counted along it
T5 sequence (P00740 47-461 T194A): as the sequence (P00740 47-461) above, with T148A counted along it
Sequence of Factor IX to IXa conversion (P00740 29-461 limits assumed): as the sequence (P00740 29-461 limits assumed) above

B1: BC2: murine monoclonal antibody directed against human Factor IX and/or Factor IXa, isotype IgG2a (antibody, V domains shown)
VH: QIQLVQSGPELKKPGETVKISCKASGYTFTNYGMNWVKQAPGKGLKWMGWINTRNGKSTYVDDFKGRFAFSLESSASTANLQIDNLKDEDTATYFCTREGNMDGYFPFTYWGQGTLVTVSA
VL: QIVLSQSPAILSASPGEKVTMTCRASSSVNYMHWYQQKPGSSPKPWIYATSNLASGVPARFSGSGSGTSYSLTISRVEAEDAATYYCQQWSINPRTFGGGTKLEIKR
- Binds Factor IXa (Factor IXa): binds Factor IXa and yes
- Inhibits IX to IXa conversion [1]: yes
- Inhibits IXa activity in Xase complex [2]: inhibits Factor IXa activity and yes
- Cofactor requirement (Factor IX [3]): Divalent metal cofactors are required for activity; also recorded: Ca^2+ > Mn^2+
- Species cross-reactivity: monkey Factor IX [4]: cross-react
- Species cross-reactivity: rat Factor IX (rat Factor IX): cross-reacted; also recorded: species cross-reactivity with rat
- effect on prothrombin time (PT) at 60 minutes (FIG. 5) [5]: not by any of the Factor IX mAb doses
- effect on thrombus weight (FIG. 7) [5]: dose-dependently reduced
- effect on carotid artery occlusion ([5]; Factor IX mAb at the two higher doses (3, 6 mg/kg bolus + infusion)): completely blocked
- effect on thrombus formation ([5]; high dose of Factor IX mAb): virtually prevented completely
- increase in clotting time (aPTT) ([5]; highest dose of Factor IX mAb (6 mg/kg bolus + 2 ug/kg/min)): ≤ 3 fold
- effect on carotid artery occlusion (patency) ([5]; lower dose of Factor IX mAb alone (1 mg/kg + 0.3 ug/kg/min)): largely failed to secure patency
- effect on aPTT at 60 minutes (FIG. 4) ([5]; regimens of b146-b150, given 15 minutes before injury): modest effect
- kass [6]: 480000 M⁻¹ s⁻¹
- kdiss [6]: 0.00091 s⁻¹
- epitope (Factor IX gla domain): residues 3-11 of the Factor IX gla domain
- [formula] (row head is a formula not shown) (Factor IX [7]; Table I, the values are: max aPTT as % of normal aPTT): 350%
- aPTT at saturating concentrations of mAb (Factor IX [7]; normal human plasma, FIG. 1): about 90 sec
- increase of the aPTT at saturating concentrations (Factor IX [7]; normal human plasma, FIG. 1): 3.5 fold
- maximal value of clot time in the aPTT assay (Factor IX [7]; self-limiting effect, summary description): about 100 seconds
- Binds Factor IX (Factor IX [8]): yes

B2: SB 249417: humanized anti-Factor IX mAb, heavy chain F9HZHC 1-1 (SEQ ID NO: 52), light chain F9HZLC 2-0 (SEQ ID NO: 74) (antibody, V domains shown)
VH: QVQLVQSGSELKKPGASVKVSCKASGYTFTNYGMNWVRQAPGQGLKWMGWINTRNGKSTYVDDFKGRFVFSLDSSVSTAYLQISSLKADDTAVYYCTREGNMDGYFPFTYWGQGTLVTVSS
VL: QIVLTQSPSSLSASVGDRVTITCRASSSVNYMHWYQQKPGKAPKPWIYATSNLASGVPSRFSGSGSGTDYTFTISSLQPEDIATYYCQQWSINPRTFGQGTKVEIKR
- effect on aPTT (FIG. 8) [9]: modest effect
- Stoichiometry of Factor IX Binding, Isothermal Titration Calorimetry (rhFIX): 1.5 moles Factor IX: 1 mole mAb
